T1: Pig ASGR-1 (pig)
T1 construct: Expressed on HEK 293 cells or as membrane prep on beads; cDNA GenBank NM_001244458
T1 chain: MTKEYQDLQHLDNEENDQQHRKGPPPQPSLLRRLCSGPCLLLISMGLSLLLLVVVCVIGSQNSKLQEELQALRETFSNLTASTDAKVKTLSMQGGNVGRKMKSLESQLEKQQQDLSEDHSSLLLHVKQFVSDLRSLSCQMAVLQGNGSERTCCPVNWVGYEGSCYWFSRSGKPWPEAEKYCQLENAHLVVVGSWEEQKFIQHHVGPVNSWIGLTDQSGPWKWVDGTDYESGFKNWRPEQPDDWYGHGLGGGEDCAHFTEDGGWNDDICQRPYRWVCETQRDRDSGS

T2: Cyno ASGR-1 (cynomolgus monkey, UniProt P07306 1-291 (human entry))
T2 construct: Expressed on HEK 293 cells or as membrane prep on beads; cDNA from XP_005582755; also called cynomologus monkey ASGR-1
T2 chain: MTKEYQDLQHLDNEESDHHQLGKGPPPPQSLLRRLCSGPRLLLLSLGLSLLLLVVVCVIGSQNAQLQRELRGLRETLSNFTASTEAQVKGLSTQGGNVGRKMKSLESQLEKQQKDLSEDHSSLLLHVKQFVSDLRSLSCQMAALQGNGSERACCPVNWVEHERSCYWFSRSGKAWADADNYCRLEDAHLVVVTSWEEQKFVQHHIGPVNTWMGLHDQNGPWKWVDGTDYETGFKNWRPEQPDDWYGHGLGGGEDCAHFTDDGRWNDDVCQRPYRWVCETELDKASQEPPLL

T3: Human ASGR-2 (human, UniProt P07307 1-311)
T3 construct: Expressed on HEK 293 cells; cDNA GenBank NM_080913.3; also called huASGR-2; hASGR-2
T3 sequence: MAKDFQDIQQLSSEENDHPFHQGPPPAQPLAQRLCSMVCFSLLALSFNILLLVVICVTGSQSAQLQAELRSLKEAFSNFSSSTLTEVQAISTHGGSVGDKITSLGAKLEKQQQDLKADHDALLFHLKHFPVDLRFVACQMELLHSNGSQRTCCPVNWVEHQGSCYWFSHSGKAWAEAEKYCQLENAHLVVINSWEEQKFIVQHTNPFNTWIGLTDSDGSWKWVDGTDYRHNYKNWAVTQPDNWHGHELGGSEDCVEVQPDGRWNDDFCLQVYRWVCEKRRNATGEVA


How the values were obtained:
[1] = biological target: T1, Pig ASGR-1; experiment: FACS on transfected HEK 293 cells or membrane preps on beads; Y = signal at least 2x irrelevant IgG
How it was run: (§1)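 Antibodies at normalized concentrations bound 1 h at 4° C to HEK 293 cells expressing each antigen, then Alexa Fluor 647 anti-Fc plus 7-AAD 15 min at 4° C, flow cytometry; empty-vector cells as negative. Alternatively, species ASGR-1 membrane preps on streptavidin beads, antibody 1 h RT, Alexa Fluor 488 anti-Fc; FACS buffer with 1 mM CaCl2 throughout.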

[2] = biological target: T2, Cyno ASGR-1; experiment: as above
How it was run: as §1

[3] = biological target: T3, Human ASGR-2; experiment: FACS on transfected HEK 293 cells; binding = signal at least 2x irrelevant IgG
Protocol: Human ASGR-1-specific, ligand competing antibody samples were tested for binding to ASGR-1 from other species (cynomologus monkey ASGR-1, mouse ASGR-1, rat ASGR-1, dog ASGR-1, and pig ASGR-1) as well as to human ASGR-2 in FACS binding assays at normalized antibody concentrations. For cell-based assays, HEK 293 cells expressing the appropriate antigen of interest were mixed with antibody sample or controls, incubated for 1 hour at 4° C., and then washed twice. Cells with bound antibody were then incubated with Alexa Fluor® 647 IgG Fc fragment-specific detection antibody and 7-AAD viability stain for 15 minutes at 4° C., washed once and resuspended in FACS buffer. Samples were analyzed using a BD Accuri™ Flow Cytometer and an Intellicyt HyperCyt Autosampler. As a negative control, supernatants and controls were also screened against HEK 293 cells transfected with empty parental vector. […] For membrane-prep binding assays, ASGR-1 species specific membrane preps were used to coat LumAvidin® microspheres (beads) and tested for binding to selected hybridoma supernatants or controls. Briefly, ASGR-1 species specific membrane preps were incubated with streptavidin-coated LumAvidin® beads for 45 minutes in the dark at room temperature and washed twice. Beads were resuspeneded in FACS buffer containing Stabilguard®. Antigen-bound beads were then incubated with normalized antibody sample for 1 hour in the dark at room temperature, washed twice, incubated with Alexa Fluor® 488 IgG Fc fragment-specific detection antibody for 15 minutes in the dark at room temperature, washed once and finally resuspended in FACS buffer. Samples were analyzed using an Intellicyt iQue™ Screener Platform. FACS buffer supplemented with 1 mM Calcium Chloride was used in all steps. As a negative control, supernatants and controls were also screened against a non-ASGR-1 antigen membrane prep coated on the LumAvidin® beads.

| Binder | binding result [1] | binding result [2] | binding result [3] |
| --- | --- | --- | --- |
| 194A4 (antibody, V domains shown, Tested as hybridoma supernatant at normalized concentration) VH: QVQLVQSGTEVKKPGASLKVSCKASGYTFTVYYLNWVRQAPGQGLEWMGWINPNSGGTNYAQKFQGRVTMTRDTSISTAYMELSRLRSDDTAVYYCARGYDILTGWGQGTLVTVSS VL: EIVLTQSPGTLSLSPGERATLSCRASRGVSNIYLAWYQQKPGQAPRLLIYGASNRATGIPDRFSGSGSGTDFTLTISRLEPEDFAVYYCQHNDYSMFTFGPGTKVDIK | binds | binds | no binding |
| 4A2 (antibody, V domains shown, Tested as hybridoma supernatant at normalized concentration) VH: QVQLVQSGTEVKKPGASVKVSCKASGYTFTNYDINWVRQATGQGLEWMGWMHPNSGNTGYAQKFQGRVTLTRNTSISTAYMELSSLRSEDTAVYYCASSSGWYYFDYWGQGTLVTVSS VL: DIVMTQSPDSLAVSLGERATINCKSSQSILHSSNNNNYLAWFQQKPGQPPKLLLYWASTRESGVPDRFSGSGSGTDFTLTISSLQPEDVAVYYCQQYYNTPVTFGPGTKVGIK | binds | binds | no binding |
| 4B1 (antibody, V domains shown, Tested as hybridoma supernatant at normalized concentration) VH: QVQLQESGPGLVKPSETLSLTCSVSGDSISSYSWSWIRQPAGKGLEWIGRIYTSGSTNYIPSLKSRITMSVDTSKKQFSLKLSSVTAADTAVYYCARDLKSSGCLFFDYWGQGTLVTVSS VL: DIQMTQSPSSLSASVGDRVTITCRASHTIRTYLNWYQQKPGKAPKLLIYAASSLQSGVPSRINGSGSGTDFTLTITNLQPEDFATYYCQQSYNISFTFGPGTKVDIK | binds | binds | no binding |
| 4H6 (antibody, V domains shown, Tested as hybridoma supernatant at normalized concentration) VH: QVQLVQSGAEVKKPGASVKVSCKASGYTFTDYYLHWVRQAPGQGLEWMGWIHPNSGGTNYAQKFQGRVTMTRDTSISTAYMGLSSLRSDDTAVYYCARDGTSSFDYWGQGTLVTVSS VL: DIQMTQSPSSVSASVGDRVTITCRASQGISRWLAWYQQKPGKAPKLLIYGASSLQSGVPSRFSGSGSGTDFTLTISSLQPEDFAIYYCQQANSFPFTFGPGTKVDIK | binds | binds | no binding |
| 72G9 (antibody, V domains shown, Tested as hybridoma supernatant at normalized concentration) VH: EVQLVESGGGLVKPGGSLRLSCAASGFTFSSYSMNWVRQAPGKGLEWVSSISGSSSYIYYADSVKGRFTISRDNAKNSLYLQMNSLRAEDTAVYFCARGGSRGFDPWGQGTLVTVSS VL: DIQMTQSPSSLSASVGDRVTITCRASQSITSYLNWYQQKPGKAPKLLIYTASSLQSGVPSRFSGSGSGTDFTLTISSLQPEDFATYYCQQSHSFPFTFGPGTKVDIK | binds | binds | no binding |
| 56E5 (antibody, V domains shown, Tested as hybridoma supernatant at normalized concentration) VH: QVQLVQSGAEVKKPGASVKVSCQASGYTFTGYHMHWVRQAPGQGLEWMGWINPNNNATNYAQKFQGRVTMTRDTSISTAYMELRRLRSDDTAVYHCARDGTSSFDYWGQGTLVTVSS VL: DIQMTQSPSSVSASVGDRVTITCRASQGIRKWLAWYQQKPGKAPKLLIYAASSLQSGVPSRFSGSGSGTDFTLTISSLQPEDFATYYCQQANSFPFTFGPGTKVDIK | binds | binds | no binding |

From patent US20190248902A1 (published 2019)
